# Test results published in publication PMC2965676, “The C-Terminal Domain of the MutL Homolog from Neisseria gonorrhoeae Forms an Inverted Homodimer” (PLoS ONE, 2010).
# Target: the molecule itself
# Assay: SEC; Superose 6 HR 10/30; 10 mM Hepes pH 8.0, 300 mM KCl, 10% glycerol, 1 mM 2-mercaptoethanol; 0.4 ml/min; calibrated with molecular-mass markers
protein,measurement,value
"C-terminal domain of the MutL homolog of Neisseria gonorrhoeae (NgoL-CTD), wild type (domain or fragment, UniProt Q5F8M6 458-658, looked up, MutL homolog (NgoL) of Neisseria gonorrhoeae, C-terminal domain, residues 458-658; In the model, residues 463-654 (monomer A) and 464-656 (monomer B) are built; 587-591 are disordered; also called C-terminal domain of NgoL; source: selenomethionine-labelled form in E. coli B834) IPSQSELPPLGFAIAQLLGIYILAQAEDSLLLIDMHAAAERVNYEKMKRQRQENGNLQSQHLLIPVTFAASHEECAALADHAETLAGFGLELSDMGGNTLAVRAAPVMLGKSDVVSLARDVLGELAQVGSSQTIASHENRILATMSCHGSIRAGRRLTLPEMNALLRDMENTPRSNQCNHGRPTWVKLTLKELDTLFLRGQ",stoichiometry N,2
